Assays:
[1] = system: pathological retinal neovascularization; assay: Oxygen-induced retinopathy (OIR); type: in vivo, mouse
Method: C57BL/6J mouse pups at postnatal day (P)7 and their fostering mothers (CD1, Charles River) were submitted to 75% oxygen in oxycycler chamber for 5 days. Pups were then returned to normoxia at P12 and administered 100 ng of recombinant human DAND5 intravitreally or similar volume of vehicle in the contralateral eye. Eyes were enucleated at P17 and processed for immunostaining. Ocular globes were initially fixed for 15 min in 4% paraformaldehyde (PFA). Retinas or choroids were collected after eyes dissection in PBS and blocked 1 h in PBS 3% BSA 0.1% Triton X-100TM. Fixation was prolonged in 1% PFA overnight for choroid extraction or eyes sectioning. Prior to sectioning, eyes were maintained in sucrose gradients (10-30%), cryo-preserved in a matrix gel and sliced in 14 μm sections on a cryostat (LeicaTM C[…]). Staining with either FITC-labeled isolectin GS 1B4 (Life technologies corporation), rhodamine phalloidin (Cedarlane Laboratories), phospho-histone H3 (Abcam), Collagen IV (Abcam) or cleaved caspase-3 (Cell Signaling) antibodies were performed on whole and/or sectioned retinas/choroids. Retinas and choroids were then mounted in fluoromount aqueous medium (Sigma-Aldrich). Quantitative analysis of tufts, vaso-obliterated or vessel areas were performed using imageJ/Swift_NVTM as previously described (1). Neovascular tuft formation was quantified by comparing the number of pixels in the affected areas with the total number of pixels in the retina. The avascular area in the retina was measured in the same way using an anti-DAND5/COCO polyclonal goat IgG antibody (AF3047, R&D systems). The effects of DAND5 on postnatal developmental angiogenesis led us to evaluate its effects on pathological angiogenesis by subjecting mouse pups to Oxygen-induced Retinopathy (OIR). Briefly, P7 pups were placed in 75% oxygen for 5 days, leading to vaso-obliteration of the retinal vascular plexus. At P12, pups were returned to room air, which stimulates retinal angiogenesis, and leads to the formation of a pathological vascular retinal network characterized by neovascular tufts (FIG. 5A).

[2] = system: Wnt signaling; assay: Canonical Wnt signaling in HUVECs (immunoblotting, β-catenin immunofluorescence); type: cell-based, human
Method: FIG. 12 is a panel with a schematic, pictures showing that Dand5 reduces canonical Wnt signaling in HUVECs. HUVECs were plated to confluence and received a 2 h scratch in the presence or absence of Dand5 ([…]) or IWR1 (3 μM). β-catenin (green) localization was examined by immunofluorescence with phalloidin and DAPI (nuclei) to identify the cell boundaries and nucleus. […] Scale bars, […]).
Cells were washed with cold PBS and extracted in Laemmli's buffer, followed by sonication. Samples were run on SDS-PAGE gels and transferred onto nitrocellulose membranes. Membranes were blocked with 5% Bovine Serum Albumin (BSA) and probed with primary antibodies overnight at 4° C.: beta-Catenin (Cell Signaling Technology), phospho-beta-catenin (Cell Signaling Technology), Axin2 (Cell Signaling Technology), beta-Actin (Santa Cruz Technologies). HRP-conjugated secondary antibodies (Vector Laboratories) were used to detect primary antibodies.
We next evaluated the molecular mechanisms underlying the effects of DAND5 on endothelial cells. […] Wnt signaling regulates fundamental aspects of vascular development, including cell fate specification, proliferation and survival. […] HUVECs were treated for up to 24 hours with DAND5 or IWR-1, an inhibitor of Wnt canonical signaling. Protein extracts were harvested and subjected to immunoblotting against downstream effectors of Wnt signaling. […] The levels of β-catenin at different subcellular localizations are regulated by a variety of processes including site-specific phosphorylation of β-catenin. In the absence of an active Wnt signaling, β-catenin localization at cellular junctions is reduced and cytoplasmic β-catenin associates with the destruction complex (6).

[3] = system: HUVECs; assay: Free radicals / ROS in HUVECs (DCFDA, MitoSoxRed); type: cell-based, human; conditions: HUVECs
Method: FIG. 8 is a panel with graphs and pictures showing that Dand5 induces mitochondrial oxidative stress and alters ATP levels in HUVECs. FIG. 8A: HUVEC cells were treated with Dand5 in the presence or not of N-acetylcysteine (NAC) for up to 48 hours. Cells were then incubated with H2DCFDA. Hydrogen peroxide treated cells (H2O2) were included as a positive control. Fluorescence was measured at Ex: 485 nm and Em: 535 nm in a plate reader. Relative Fluorescence Units (RFU) were generated by normalizing the reading of each well to Hoescht staining (n=3,*p<0.05 **p<0.001). FIG. 8B: HUVEC cells were treated with Dand5 in for up to 48 hours. Cells were incubated with MitoSox Red. 3-nitro-proprionic acid (3-NP) treated cells were also examined as a positive control. Fluorescence was measured at Ex: 544 nm and Em: 590 nm. Relative Fluorescence Units (RFU) were generated by normalizing the reading of each well to Hoescht staining (n=3,*p<0.05). FIG. 8C: Primary culture of choroidal sprouts were treated with Dand5 in the absence or presence of NAC. FIG. 8D: Quantification of sprouting area by Image J. FIG. 8E: The ratio of NAD+ to NADH in whole cell extracts was determined using an Alcohol Dehydrogenase/Malate Dehydrogenase enzymatic cycling assay. Cells treated to hypoxic conditions (4% O2 for 3 hours) were included as a positive control (n=3,*p<0.05, **p<0.01). Likewise, glucose uptake was reduced in Dand5-treated HUVECs after 1 hour, while lactate levels were increased (lower panel). FIG. 8F: ATP levels were reduced in HUVECs exposed to Dand5 at 1, 6 and 24 hours (n=3,*p=0.05).
We exposed or not HUVECs to recombinant DAND5 and measured the concentration of free radicals using DCFDA and MitoSoxRed™. […] To further test this, we measure the NAD+/NADH ratio in cells treated or not with DAND5. […] Likewise, glucose uptake was reduced and lactate levels were increased in DAND5-treated HUVECs after 1 h (FIG. 8E, lower panel).

[4] = HUVECs treated for up to 24 hours, immunoblotting

B1: DAND5: human recombinant DAND5/COCO biologically active fragment produced in E. coli, predicted 18.2 kDa monomer, R&D systems 3047-CC-050 (protein)
chain: MRPEPQSPRPQSWAAANQTWALGPGALPPLVPASALGSWKAFLGLQKARQLGMGRLQRGQDEVAAVTLPLNPQEVIQGMCKAVPFVQVFSRPGCSAIRLRNHLCFGHCSSLYIPGSDPTPLVLCNSCMPARKRWAPVVLWCLTGSSASRRRVKISTMLIEGCHCSPKA
Q: B1 was tested. Which “effect on neovascularization compared with Flt1 Fc” value [1] did it give?
A: Its value is “stronger effect on neovascularization than Flt1 Fc”.

Q: And the pathological neovascularization ([1]; 100 ng intravitreal at P12, retinas at P17)?
A: Its pathological neovascularization is “significantly reduced pathological neovascularization”.

Q: What about the “revascularization of the central part of the retina” value ([1]; injection at P12, P17) of the same molecule?
A: Its value is “not affected”.

Q: And the “amount and size of neovascular tufts” value ([1]; injection at P12, P17, compared to PBS)?
A: The value was “significantly reduced”.

Q: And the “levels of Axin2” value [2, 4]?
A: The value was “increased levels of Axin2”.

Q: And the “levels of phosphorylated beta-catenin” value [2, 4]?
A: Its value is “increased levels of phosphorylated beta-catenin”.

Q: And the “levels of total beta-catenin” value [2, 4]?
A: The value was “decreased levels of total beta-catenin”.

Q: What about the “cytoplasmic β-catenin” value ([2]; confluent HUVECs, 2 h scratch, Dand5 60n/mL or IWR1 3 μM) of the same molecule?
A: The value was “increased cytoplasmic β-catenin”.

Q: And the β-catenin subcellular localization ([2]; staining of HUVECs cultured in the presence of DAND5)?
A: The β-catenin subcellular localization was “decreased membrane localization and increased internalization of β-catenin in the cytoplasm”.

Q: And the “free radicals (DCFDA)” value ([3]; 24 h and 48 h post-treatment)?
A: Its value is “induced elevation of free radicals 24 h and 48 h post-treatment”.

Q: And the “mitochondrial reactive oxygen species (MitoSoxRed), time course” value ([3]; time-course analysis)?
A: Its value is “induced before cytosolic ROS”.

Source: patent publication US20220265772A1, “USES OF DAN FAMILY BMP ANTAGONISTS FOR INHIBITING OCULAR NEOVASCULARIZATION AND TREATING OCULAR CONDITIONS” (9636137 Canada Inc., priority 2019, published 2022)
